T1: N-terminal 32 amino acids of huC16orf54 (Homo sapiens, UniProt Q6UWD8)
T1 sequence (Q6UWD8 1-32 limits assumed): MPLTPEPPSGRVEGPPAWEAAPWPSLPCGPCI

T2: human C16orf54 (human, UniProt Q6UWD8 1-224)
T2 construct: also called huC16orf54; hC16orf54
T2 sequence: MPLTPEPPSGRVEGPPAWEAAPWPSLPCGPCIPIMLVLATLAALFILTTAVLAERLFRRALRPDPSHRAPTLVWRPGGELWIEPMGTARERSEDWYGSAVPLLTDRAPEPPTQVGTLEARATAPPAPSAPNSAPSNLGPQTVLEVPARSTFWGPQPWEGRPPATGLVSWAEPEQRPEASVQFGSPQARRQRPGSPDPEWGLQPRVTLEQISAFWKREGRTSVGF

T3: cynomolgus monkey C16orf54 (cynomolgus monkey (Macaca fascicularis), UniProt Q6UWD8 1-224 (human entry))
T3 construct: also called cyno C16orf54; cyno-C16orf54
T3 chain: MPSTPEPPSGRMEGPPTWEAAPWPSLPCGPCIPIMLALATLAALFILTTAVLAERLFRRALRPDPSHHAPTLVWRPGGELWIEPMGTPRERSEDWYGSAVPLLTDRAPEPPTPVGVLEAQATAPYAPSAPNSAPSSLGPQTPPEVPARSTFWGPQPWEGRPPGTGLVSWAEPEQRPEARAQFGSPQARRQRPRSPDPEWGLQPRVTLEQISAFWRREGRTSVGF


What was measured:
[1] = target: T1, N-terminal 32 amino acids of huC16orf54; assay: Affinity measurements of purified antibodies on OctetQK384; format: binding; conditions: purified antibody, streptavidin sensors coated with N-terminal 32 amino acids of huC16orf54 coupled to biotin
Procedure: Affinity measurements of purified anti-huC16orf54 antibodies were carried out on the OctetQK384® sytem (ForteBio). After coating streptavidin sensors with the N-terminal 32 amino acids of huC16orf54 coupled to biotin at the C-terminus, association and dissociation of purified anti-huC16orf54 antibodies was monitored. KD values were derived using ForteBio's software.

human C16orf54 [2] = target: T2, human C16orf54; assay: flow cytometry, 10 ug/ml antibody, D42M1-huC16orf54 cells
Method in brief: (§1)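 Sarcoma cells transfected with human or cyno C16orf54 were Fc-blocked, stained with antibody for 1 h at 4° C., then PE anti-mouse IgG Fcγ secondary 30 min at 4° C., with TO-PRO-3 viability dye. Value is live-cell PE median fluorescence divided by that of IgG isotype control.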

[3] = target: T3, cynomolgus monkey C16orf54; assay: flow cytometry, 10 ug/ml antibody, F279-cyno-C16orf54 cells
Method in brief: as §1

human C16orf54 [4] = target: T2, human C16orf54; assay: flow cytometry, OCI-AML3 leukemia cells (endogenous C16orf54), 3 repeats
human C16orf54 [5] = target: T2, human C16orf54; assay: flow cytometry, Granta-519 lymphoma cells (endogenous C16orf54), 1 repeat
human C16orf54 [6] = target: T2, human C16orf54; assay: flow cytometry, HEL92.1.7 leukemia cells (endogenous C16orf54), 3 repeats
human C16orf54 [7] = target: T2, human C16orf54; assay: flow cytometry, BxPC-3 pancreatic cancer cells (endogenous C16orf54), 3 repeats
human C16orf54 [8] = target: T2, human C16orf54; assay: flow cytometry, SW1990 pancreatic cancer cells (endogenous C16orf54), 3 repeats
human C16orf54 [9] = target: T2, human C16orf54; assay: flow cytometry, CFPAC-1 pancreatic cancer cells (endogenous C16orf54), 3 repeats

Row | Molecule | kdis [1] [s⁻¹] | kon [1] [M⁻¹ s⁻¹] | Median fold change relative to IgG control (human C16orf54 [2]) [fold] | Median fold change relative to IgG control [3] [fold] | Average MFI fold change relative to isotype control (human C16orf54 [4]) [fold] | Average MFI fold change relative to isotype control (human C16orf54 [5]) [fold] | Average MFI fold change relative to isotype control (human C16orf54 [6]) [fold] | Average MFI fold change relative to isotype control (human C16orf54 [7]) [fold] | Average MFI fold change relative to isotype control (human C16orf54 [8]) [fold] | Average MFI fold change relative to isotype control (human C16orf54 [9]) [fold]
1 | R29-7-1C: murine anti-C16orf54 monoclonal antibody, IgG2a; VH SEQ ID NO: 8, VL SEQ ID NO: 10 (antibody, V domains shown, R29-7-1C heavy chain variable region; R29-7-1C light chain variable region) VH: MRVLILLWLFTAFPGILSDVQLQESGPGLVKPSQSLSLTCTVTGYSITSDYAWNWIRQFPGNKLEWMGYISYSGSIRYNPSLKSRISITRDTSKNQFFLQLNSVTTEDTATYYCAREKYDNYYYAMDYWGQGTSVTVSS VL: MDSQAQVLMLLLLWVSGTCGDIVMSQSPSSLAVSVGEKVTLSCKSSQNLLYSTNQKNYLAWYQQKPGQSPKLLIYWASTRESGVPDRFTGSGSGTDFTLTISSVKAEDLAVYYCQQYYSYRTFGGGTKLEIK | 7.95e-05 ± 8.9e-06 | 68100 ± 6200 |  |  |  |  |  |  |  | 
2 | R29-7-1C (antibody, V domains shown, Murine monoclonal IgG2a from a hybridoma) VH: DVQLQESGPGLVKPSQSLSLTCTVTGYSITSDYAWNWIRQFPGNKLEWMGYISYSGSIRYNPSLKSRISITRDTSKNQFFLQLNSVTTEDTATYYCAREKYDNYYYAMDYWGQGTSVTVSS VL: DIVMSQSPSSLAVSVGEKVTLSCKSSQNLLYSTNQKNYLAWYQQKPGQSPKLLIYWASTRESGVPDRFTGSGSGTDFTLTISSVKAEDLAVYYCQQYYSYRTFGGGTKLEIK |  |  | 205 | 53.7 | 3 | 3.8 | 5 | 7 | 1.9 | 1.6
